Experimental data as given in patent US20230212549A1, “COMPOUNDS COMPRISING A […] LIGAND AND USE THEREOF” (priority 2021, published 2023).
Bridge positions count the residues as written; N and C are the ends.

T1: Caspase-7, P55210
T1 chain: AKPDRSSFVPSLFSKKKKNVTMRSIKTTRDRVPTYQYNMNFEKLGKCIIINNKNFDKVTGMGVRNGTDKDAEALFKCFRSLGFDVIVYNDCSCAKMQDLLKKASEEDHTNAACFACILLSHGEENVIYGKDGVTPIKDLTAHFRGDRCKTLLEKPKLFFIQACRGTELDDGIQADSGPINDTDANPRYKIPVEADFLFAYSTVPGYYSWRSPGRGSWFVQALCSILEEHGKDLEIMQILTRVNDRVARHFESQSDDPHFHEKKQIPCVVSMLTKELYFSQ

T2: Matrix metalloprotease 2, P08253
T2 chain: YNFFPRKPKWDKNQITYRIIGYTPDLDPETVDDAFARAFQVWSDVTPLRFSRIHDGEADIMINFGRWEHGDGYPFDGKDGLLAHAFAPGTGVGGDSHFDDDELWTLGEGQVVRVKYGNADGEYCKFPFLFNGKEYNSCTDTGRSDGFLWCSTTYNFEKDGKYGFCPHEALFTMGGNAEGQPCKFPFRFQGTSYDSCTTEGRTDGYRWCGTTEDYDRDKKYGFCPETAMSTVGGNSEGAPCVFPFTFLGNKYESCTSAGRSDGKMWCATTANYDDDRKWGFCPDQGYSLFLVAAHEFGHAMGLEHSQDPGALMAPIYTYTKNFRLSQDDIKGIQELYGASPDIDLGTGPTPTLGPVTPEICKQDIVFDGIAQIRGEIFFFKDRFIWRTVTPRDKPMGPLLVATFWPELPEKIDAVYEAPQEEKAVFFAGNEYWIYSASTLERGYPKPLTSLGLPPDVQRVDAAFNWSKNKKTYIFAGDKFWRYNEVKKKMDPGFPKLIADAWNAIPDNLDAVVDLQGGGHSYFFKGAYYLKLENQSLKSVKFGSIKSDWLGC

T3: Ubiquitin carboxy-terminal hydrolase L3, P15374
T3 chain: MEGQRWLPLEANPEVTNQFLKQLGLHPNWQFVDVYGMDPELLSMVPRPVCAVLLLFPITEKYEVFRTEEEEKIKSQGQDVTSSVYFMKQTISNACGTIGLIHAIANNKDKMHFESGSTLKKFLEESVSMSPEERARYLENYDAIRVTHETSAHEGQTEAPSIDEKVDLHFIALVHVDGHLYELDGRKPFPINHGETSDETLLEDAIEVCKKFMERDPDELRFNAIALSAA

T4: Deubiquitinase OTUD6B, Q8N6M0
T4 chain: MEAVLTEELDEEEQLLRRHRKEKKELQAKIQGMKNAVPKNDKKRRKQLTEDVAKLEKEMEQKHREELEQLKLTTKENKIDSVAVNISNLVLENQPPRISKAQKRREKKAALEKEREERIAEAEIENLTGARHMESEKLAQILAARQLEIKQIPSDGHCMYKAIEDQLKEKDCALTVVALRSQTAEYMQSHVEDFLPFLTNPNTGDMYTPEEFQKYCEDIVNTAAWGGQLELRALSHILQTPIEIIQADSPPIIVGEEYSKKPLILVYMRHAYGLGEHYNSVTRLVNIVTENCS

T5: Caspase-9, P55211
T5 chain: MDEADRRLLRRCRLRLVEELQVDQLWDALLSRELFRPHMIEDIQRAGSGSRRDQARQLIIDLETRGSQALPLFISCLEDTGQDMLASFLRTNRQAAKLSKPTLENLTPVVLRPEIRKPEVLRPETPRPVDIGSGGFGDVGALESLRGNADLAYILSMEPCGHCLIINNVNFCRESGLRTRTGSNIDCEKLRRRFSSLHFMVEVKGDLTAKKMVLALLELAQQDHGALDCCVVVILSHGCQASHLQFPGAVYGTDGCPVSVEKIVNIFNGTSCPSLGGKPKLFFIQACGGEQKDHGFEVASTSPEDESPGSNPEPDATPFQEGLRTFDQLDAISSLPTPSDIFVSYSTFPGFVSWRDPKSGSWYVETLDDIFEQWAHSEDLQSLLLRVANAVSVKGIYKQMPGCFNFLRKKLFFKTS

T6: Renin, P00797
T6 chain: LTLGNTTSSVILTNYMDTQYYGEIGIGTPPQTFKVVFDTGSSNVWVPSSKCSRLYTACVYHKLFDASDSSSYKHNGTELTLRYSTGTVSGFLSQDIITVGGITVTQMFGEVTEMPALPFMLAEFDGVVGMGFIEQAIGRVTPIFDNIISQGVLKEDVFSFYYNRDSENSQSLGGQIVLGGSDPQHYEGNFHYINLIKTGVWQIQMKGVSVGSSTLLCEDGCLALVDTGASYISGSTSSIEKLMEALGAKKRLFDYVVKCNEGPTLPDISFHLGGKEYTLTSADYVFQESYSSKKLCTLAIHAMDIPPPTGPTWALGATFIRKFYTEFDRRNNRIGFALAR

T7: Caspase-8, Q14790
T7 chain: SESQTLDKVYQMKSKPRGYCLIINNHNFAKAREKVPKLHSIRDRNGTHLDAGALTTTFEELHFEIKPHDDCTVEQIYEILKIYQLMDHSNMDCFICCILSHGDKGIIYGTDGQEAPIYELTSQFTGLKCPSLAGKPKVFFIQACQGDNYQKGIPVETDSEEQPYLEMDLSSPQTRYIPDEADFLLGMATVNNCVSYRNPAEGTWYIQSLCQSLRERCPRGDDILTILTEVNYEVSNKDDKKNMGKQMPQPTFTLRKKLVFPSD


Legend:
Assay in all cases: cell-based or functional assay
Cathepsin L, P07711 = molecular target: Cathepsin L, P07711
Cathepsin L, P07711, sequence (P07711 114-333 limits assumed): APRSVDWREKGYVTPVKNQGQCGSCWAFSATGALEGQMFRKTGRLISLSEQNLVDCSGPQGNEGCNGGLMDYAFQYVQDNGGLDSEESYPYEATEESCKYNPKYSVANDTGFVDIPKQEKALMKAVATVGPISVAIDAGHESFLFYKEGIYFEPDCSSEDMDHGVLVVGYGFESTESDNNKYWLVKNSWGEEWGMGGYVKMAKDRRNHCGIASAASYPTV

Caspase-7, P55210 = molecular target: T1, Caspase-7, P55210
[1] = molecular target: T2, Matrix metalloprotease 2, P08253
[2] = molecular target: T3, Ubiquitin carboxy-terminal hydrolase …
Cathepsin V, O60911 = molecular target: Cathepsin V, O60911
Cathepsin V, O60911, sequence (O60911 114-334 limits assumed): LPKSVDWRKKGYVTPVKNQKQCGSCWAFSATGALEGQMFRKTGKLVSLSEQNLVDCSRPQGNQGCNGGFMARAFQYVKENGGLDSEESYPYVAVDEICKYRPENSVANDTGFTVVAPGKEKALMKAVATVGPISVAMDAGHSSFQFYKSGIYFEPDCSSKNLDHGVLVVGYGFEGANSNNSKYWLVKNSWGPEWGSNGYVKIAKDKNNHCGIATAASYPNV

[3] = molecular target: PDE3A (h) (human), Q14432
PDE3A (h) (human), Q14432, sequence (Q14432 669-1141 limits assumed): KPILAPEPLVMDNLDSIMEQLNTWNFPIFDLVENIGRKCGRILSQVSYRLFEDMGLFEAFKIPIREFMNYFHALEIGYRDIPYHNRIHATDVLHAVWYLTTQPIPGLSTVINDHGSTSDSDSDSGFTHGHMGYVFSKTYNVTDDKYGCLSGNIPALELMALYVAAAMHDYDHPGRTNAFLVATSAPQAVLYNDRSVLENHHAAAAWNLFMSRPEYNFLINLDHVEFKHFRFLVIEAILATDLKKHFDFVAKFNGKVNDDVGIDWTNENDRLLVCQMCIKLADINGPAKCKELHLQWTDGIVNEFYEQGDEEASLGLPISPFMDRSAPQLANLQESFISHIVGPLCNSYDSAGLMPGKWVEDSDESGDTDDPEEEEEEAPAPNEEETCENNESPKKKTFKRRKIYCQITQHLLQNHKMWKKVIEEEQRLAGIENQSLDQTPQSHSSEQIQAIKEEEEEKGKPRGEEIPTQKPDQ

[4] = molecular target: T4, Deubiquitinase OTUD6B, Q8N6M0
Caspase-9, P55211 = molecular target: T5, Caspase-9, P55211
Renin, P00797 = molecular target: T6, Renin, P00797
Caspase-8, Q14790 = molecular target: T7, Caspase-8, Q14790

Binder | Percentage inhibition (%) at 1 µM (Cathepsin L, P07711) | Percentage inhibition (%) at 10 µM (Cathepsin L, P07711) | Percentage inhibition (%) at 1 µM (Caspase-7, P55210) | Percentage inhibition (%) at 10 µM (Caspase-7, P55210) | Percentage inhibition (%) at 1 µM [1] | Percentage inhibition (%) at 10 µM [1] | Percentage inhibition (%) at 1 µM [2] | Percentage inhibition (%) at 10 µM [2] | Percentage inhibition (%) at 1 µM (Cathepsin V, O60911) | Percentage inhibition (%) at 10 µM (Cathepsin V, O60911) | % inhibition of control enzyme activity, compound at 10 µM [3] | Percentage inhibition (%) at 1 µM [4] | Percentage inhibition (%) at 10 µM [4] | Percentage inhibition (%) at 1 µM (Caspase-9, P55211) | Percentage inhibition (%) at 10 µM (Caspase-9, P55211) | Percentage inhibition (%) at 1 µM (Renin, P00797) | Percentage inhibition (%) at 10 µM (Renin, P00797) | Percentage inhibition (%) at 1 µM (Caspase-8, Q14790) | Percentage inhibition (%) at 10 µM (Caspase-8, Q14790)
Hex-CPPTQFCD-NH2 (bridge 1-7; not fully specified (bridges); printed as Hex-[Cys(tMeBn(DOTA-PP))-Pro-Pro-Thr-Gln-Phe-Cys]-Asp-NH2) [Hex-[Cys(tMeBn(DOTA-PP))-Pro-Pro-Thr-Gln-Phe-Cys]-Asp-NH2] | 3% | 6% | -3% | -3% | 3% | 3% | -1% | 14% | 1% | -18% | -3% | 2% | 15% | 5% | 8% | -1% | 3% | 0% | 0%
Hex-CPPTQFC-OH (bridge 1-7; not fully specified (bridges); printed as Hex-[Cys(tMeBn(DOTA-AET))-Pro-Pro-Thr-Gln-Phe-Cys]-OH) [Hex-[Cys(tMeBn(DOTA-AET))-Pro-Pro-Thr-Gln-Phe-Cys]-OH] | 0% | -6% | -1% | -7% | -1% | -2% | 0% | 0% | -1% | -1% | -37% | 0% | 0% | -1% | -2% | 0% | -1% | 0% | -3%
